In PMC5656002 (ACS infectious diseases, 2016):
Numbering of substitutions follows the chain as printed. Numbers in names are those of the source. Where two headings read alike, the source gives them in different places.

Experiments:
[1] = molecular target: SME-1 beta-lactamase (Serratia marcescens) (UniProt P52682); conditions: cited from earlier work
[2] = molecular target: KPC-2 beta-lactamase (Klebsiella pneumoniae) (UniProt Q9F663); conditions: cited from earlier work
[3] = molecular target: CTX-M-14 beta-lactamase (Escherichia coli); conditions: cited from earlier work
[4] = molecular target: T1, KPC-2 β-lactamase (purified) (UniProt Q9F663 30-293); assay: cell-based or functional assay
[5] = molecular target: T1, KPC-2 β-lactamase (purified); assay: enzyme inhibition assay
[6] = molecular target: T1, KPC-2 β-lactamase (purified); assay: enzyme inhibition assay; remark: listed apart in the source
[7] = molecular target: T2, TEM-1 β-lactamase (purified) (UniProt P62593 24-286); assay: enzyme inhibition assay
[8] = molecular target: T2, TEM-1 β-lactamase (purified); assay: enzyme inhibition assay; remark: listed apart in the source
[9] = molecular target: T1, KPC-2 β-lactamase (purified); assay: cell-based or functional assay; remark: listed apart in the source
[10] = molecular target: T1, KPC-2 β-lactamase (purified); assay: enzyme inhibition assay; remark: listed apart in the source
[11] = molecular target: T1, KPC-2 β-lactamase (purified); assay: activity-based association and dissociation kinetics
SHV-1 β-lactamase = molecular target: T3, SHV-1 β-lactamase (UniProt P0AD64 22-286); assay: enzyme inhibition assay
T3 sequence (looked up): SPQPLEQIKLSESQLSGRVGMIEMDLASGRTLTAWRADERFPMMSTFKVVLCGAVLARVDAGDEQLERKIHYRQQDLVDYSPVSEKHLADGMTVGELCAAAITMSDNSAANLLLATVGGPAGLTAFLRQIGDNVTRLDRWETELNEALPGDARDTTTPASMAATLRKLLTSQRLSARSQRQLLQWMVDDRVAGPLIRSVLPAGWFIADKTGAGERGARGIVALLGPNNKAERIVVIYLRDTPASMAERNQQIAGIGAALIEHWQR

[12] = molecular target: T2, TEM-1 β-lactamase (purified); assay: enzyme inhibition assay; remark: listed apart in the source
CTX-M-14 β-lactamase = CTX-M-14 β-lactamase (UniProt Q9L5C7 1-291); assay: enzyme inhibition assay
SME-1 β-lactamase = molecular target: T4, SME-1 β-lactamase (UniProt P52682 28-294); assay: enzyme inhibition assay
T4 sequence: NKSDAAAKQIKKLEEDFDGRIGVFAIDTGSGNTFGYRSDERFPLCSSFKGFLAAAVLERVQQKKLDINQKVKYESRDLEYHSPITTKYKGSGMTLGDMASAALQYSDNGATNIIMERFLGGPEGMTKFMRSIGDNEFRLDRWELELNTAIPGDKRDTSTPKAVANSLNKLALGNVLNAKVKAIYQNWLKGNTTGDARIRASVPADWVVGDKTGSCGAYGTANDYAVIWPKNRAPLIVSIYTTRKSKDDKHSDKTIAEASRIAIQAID

## BLIP (from UniProt P35804)
[1]
  Ki: 2.4 nM
[2]
  Ki: 0.082 nM
[3]
  Ki: 800 nM

B1: β-lactamase inhibitory protein (BLIP), wild type (natural protein, Streptomyces clavuligerus, UniProt P35804 37-201, looked up)
chain: AGVMTGAKFTQIQFGMTRQQVLDIAGAENCETGGSFGDSIHCRGHAAGDYYAYATFGFTSAAADAKVDSKSQEKLLAPSAPTLTLAKFNQVTVGMTRAQVLATVGQGSCTTWSEYYPAYPSTAGVTLSLSCFDVDGYSSTGFYRGSAHLWFTDGVLQGKRQWDLV
[4]
  ampicillin MIC of E. coli TP142 (chromosomal blaKPC-2) carrying the BLIP plasmid: 1 µg/mL
[5]
  Ki: 1.2 ± 0.4 nM
[6]
  Ki: 0.2 ± 0.2 nM

B2: BLIP E73K (natural protein)
chain: B1 chain with E73K
[4]
  ampicillin MIC of E. coli TP142 (chromosomal blaKPC-2) carrying the BLIP plasmid: 1.5 µg/mL
[5]
  Ki: 13.7 ± 6.6 nM
[7]
  Ki: 835 ± 172 nM
[6]
  Ki: 8.9 ± 6.3 nM
[8]
  Ki: 2530 ± 578 nM

B3: BLIP R160G (natural protein)
chain: B1 chain with R160G
[4]
  ampicillin MIC of E. coli TP142 (chromosomal blaKPC-2) carrying the BLIP plasmid: 0.75 µg/mL
[5]
  Ki: 0.9 ± 0.4 nM
[7]
  Ki: 236 ± 115 nM
[6]
  Ki: 0.4 ± 0.3 nM
[8]
  Ki: 236 ± 85 nM

B4: BLIP E73K:R160G (natural protein)
chain: B1 chain with E73K, R160G
[9]
  ampicillin MIC of E. coli TP142 (chromosomal blaKPC-2) carrying the BLIP plasmid: ≤ 3 µg/mL
[10]
  Ki: 128 ± 30 nM
[11]
  Kd: 60 nM
  koff: 0.03 s⁻¹
  kon: 500000 M⁻¹ s⁻¹

B5: BLIP K74T (natural protein)
chain: B1 chain with K74T
[4]
  ampicillin MIC of E. coli TP142 (chromosomal blaKPC-2) carrying the BLIP plasmid: 1.5 µg/mL
[5]
  Ki: 1.8 ± 2.8 nM
[7]
  Ki: 110 ± 23 nM
[6]
  Ki: 1.5 ± 1 nM
[8]
  Ki: 151 ± 97 nM

B6: BLIP K74T:R160G (natural protein)
chain: B1 chain with K74T, R160G
[9]
  ampicillin MIC of E. coli TP142 (chromosomal blaKPC-2) carrying the BLIP plasmid: ≤ 3 µg/mL
[10]
  Ki: 150 ± 57 nM

B7: BLIP W112D (natural protein)
chain: B1 chain with W112D
[4]
  ampicillin MIC of E. coli TP142 (chromosomal blaKPC-2) carrying the BLIP plasmid: 1 µg/mL
[5]
  Ki: 1080 ± 551 nM
[7]
  Ki: 1190 ± 701 nM
[6]
  Ki: 587 ± 63 nM
[8]
  Ki: 1270 ± 212 nM

B8: BLIP K74T:W112D (natural protein)
chain: B1 chain with K74T, W112D
[9]
  ampicillin MIC of E. coli TP142 (chromosomal blaKPC-2) carrying the BLIP plasmid: ≤ 3 µg/mL
SHV-1 β-lactamase
  Ki: > 10000 nM
[10]
  Ki: 0.4 ± 0.2 nM
[12]
  Ki: > 10000 nM
CTX-M-14 β-lactamase
  Ki: > 10000 nM
SME-1 β-lactamase
  Ki: 450 nM
[11]
  Kd: 0.13 nM
  koff: 3e-05 s⁻¹
  kon: 200000 M⁻¹ s⁻¹

B9: BLIP E73K:K74T (natural protein)
chain: B1 chain with E73K, K74T
[9]
  ampicillin MIC of E. coli TP142 (chromosomal blaKPC-2) carrying the BLIP plasmid: ≤ 3 µg/mL
[10]
  Ki: 1.6 ± 0.8 nM
[11]
  Kd: 1.3 nM
  koff: 0.0004 s⁻¹
  kon: 300000 M⁻¹ s⁻¹
